Each block holds one binder with its values, some of them ahead of it.
B6: isolated HtrA2-PDZ domain (residues 349–458) (domain or fragment, human, UniProt O43464 349-458, looked up)
chain: NSSSGISGSQRRYIGVMMLTLSPSILAELQLREPSFPDVQHGVLIHKVILGSPAHRAGLRPGDVILAIGEQMVQNAEDVYEAVRTQSQLAVQIRRGRETLTLYVTPEVTE
notes: HtrA2 (Omi), human mitochondrial serine protease, carboxy-terminal PDZ domain, residues 349-458 of the full-length protein of 458 residues; Constructs were either amino-terminally SUMO-His6-tagged (pET28b; tag removed with SENP1) or carboxy-terminally His6-tagged (pET21b); Isotope-labelled for NMR; also called ALVIT-PDZ; source: E. coli BL21 (λDE3), purified (Ni2+-HisTrap, gel filtration)

How the values were obtained:
wild-type mature HtrA2 = target: T1, wild-type mature HtrA2 (human, UniProt O43464 134-458); assay: cell-based or functional assay
T1 sequence (looked up): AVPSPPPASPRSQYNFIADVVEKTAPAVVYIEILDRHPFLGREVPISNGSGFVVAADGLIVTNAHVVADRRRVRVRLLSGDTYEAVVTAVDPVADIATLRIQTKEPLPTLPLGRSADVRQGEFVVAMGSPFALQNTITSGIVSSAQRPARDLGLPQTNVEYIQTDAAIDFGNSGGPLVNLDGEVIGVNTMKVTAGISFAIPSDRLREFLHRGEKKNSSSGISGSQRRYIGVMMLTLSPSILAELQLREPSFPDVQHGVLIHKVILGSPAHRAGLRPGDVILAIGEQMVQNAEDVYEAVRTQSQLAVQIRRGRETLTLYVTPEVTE

[1] = target: B6; assay: NMR titration; DD-PDZOpt titrated to HtrA2-PDZ, 2D [15N,1H] and 2D [13C,1H] spectra (ALVIT methyl-labelled PDZ); line-shape analysis with TITAN, two-state ligand binding model; 298 K; conditions: both partners purified
[2] = target: T2, wild-type mature human HtrA2 (human); assay: fluorescence cleavage assay (cleavage rate of H2Opt against DD-PDZOpt concentration, one-site binding model); apparent; 510 nM wild-type HtrA2 (monomeric concentration), 20 µM H2Opt, DD-PDZOpt varied, 20 mM HEPES pH 7.4, no EDTA, 2 mM CaCl2, 313 K; conditions: both partners purified
T2 construct: made from the S306A construct that the methods name HtrA2^133–458; also called wild-type HtrA2; Omi; source: E. coli BL21 (λDE3), purified (Ni-HisTrap, gel filtration)
T2 chain: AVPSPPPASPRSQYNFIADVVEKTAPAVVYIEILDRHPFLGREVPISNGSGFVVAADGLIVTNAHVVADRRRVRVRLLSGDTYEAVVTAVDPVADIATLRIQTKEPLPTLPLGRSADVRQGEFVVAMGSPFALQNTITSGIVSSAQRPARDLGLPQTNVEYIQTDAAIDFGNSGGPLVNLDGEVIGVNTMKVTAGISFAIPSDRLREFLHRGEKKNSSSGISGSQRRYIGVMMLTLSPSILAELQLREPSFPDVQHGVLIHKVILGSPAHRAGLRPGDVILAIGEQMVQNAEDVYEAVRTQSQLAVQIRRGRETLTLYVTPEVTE

[3] = target: T2, wild-type mature human HtrA2; assay: fluorescence cleavage assay (cleavage rate of H2Opt against DD-PDZOpt concentration, one-site binding model); apparent; 510 nM wild-type HtrA2 (monomeric concentration), 20 µM H2Opt, DD-PDZOpt varied, 20 mM HEPES pH 7.4, no EDTA, 2 mM MgSO4, 313 K; conditions: both partners purified
[4] = target: T2, wild-type mature human HtrA2; assay: fluorescence cleavage assay (cleavage rate of H2Opt against DD-PDZOpt concentration, one-site binding model); apparent; 510 nM wild-type HtrA2 (monomeric concentration), 20 µM H2Opt, DD-PDZOpt varied, 20 mM HEPES pH 7.4, 1 mM EDTA, 313 K; no additive; conditions: both partners purified
[5] = target: the molecule itself; assay: SEC-MALS; HtrA2^S306A at increasing concentrations in HBS pH 7.4 without divalent ions; multimerization KD fitted assuming a fast monomer-dimer equilibrium
[6] = target: the molecule itself; assay: SEC-MALS; HtrA2^S306A loaded at 5-7.5 mg/ml, Superdex Increase 200 10/300 GL, HBS pH 7.4, RT (~297 K), with 25 mM CaCl2; trimer to hexamer (fitted with the monomer-dimer equation); KD given as a lower limit
[7] = target: the molecule itself; assay: SEC-MALS; HtrA2^S306A loaded at 4-7.5 mg/ml, Superdex Increase 200 10/300 GL, HBS pH 7.4, RT (~297 K), no added metal ions; trimer to hexamer (fitted with the monomer-dimer equation); KD given as a lower limit
[8] = target: the molecule itself; assay: SEC-MALS; HtrA2-PDZ loaded at 100-800 µM, Superdex Increase 200 10/300 GL, HBS (20 mM HEPES, 150 mM NaCl) pH 7.4, RT (~297 K), with CaCl2; monomer to dimer; KD given as a lower limit
[9] = target: the molecule itself; assay: SEC-MALS; HtrA2-PDZ loaded at 100-800 µM, Superdex Increase 200 10/300 GL, HBS (20 mM HEPES, 150 mM NaCl) pH 7.4, RT (~297 K), with CuCl2; monomer to dimer; KD given as a lower limit
[10] = target: the molecule itself; assay: SEC-MALS; HtrA2-PDZ loaded at 100-800 µM, Superdex Increase 200 10/300 GL, HBS (20 mM HEPES, 150 mM NaCl) pH 7.4, RT (~297 K), with ZnSO4; monomer to dimer; KD given as a lower limit
[11] = target: the molecule itself; assay: SEC-MALS; HtrA2-PDZ loaded at 100-800 µM, Superdex Increase 200 10/300 GL, HBS (20 mM HEPES, 150 mM NaCl) pH 7.4, RT (~297 K), with Mg2+ (+MgCl2 in the figure, MgSO4 in Supplementary Table 1); monomer to dimer; KD given as a lower limit
[12] = target: the molecule itself; assay: SEC-MALS; HtrA2-PDZ in the presence of the activating peptide DD-PDZOpt; dimer to monomers
[13] = target: the molecule itself; assay: SEC-MALS; HtrA2-PDZ in HBS (20 mM HEPES, 150 mM NaCl) pH 7.4 supplemented with Zn2+, compared with the non-supplemented buffer; dimer to monomers
[14] = target: the molecule itself; assay: SEC-MALS; HtrA2-PDZ at a range of concentrations, Superdex Increase 200 10/300 GL, PBS pH 7.4, RT (~297 K); KD fitted assuming a fast monomer-dimer equilibrium; dimer to monomers; lower limit because the concentration range was limited by solubility

apparent K_(D,app) of DD-PDZOpt from the H2Opt cleavage rate, with 2 mM Mg2+, as percent of that in standard assay buffer (wild-type mature HtrA2): ~50%
Kd [1]: 3.18 ± 0.9 µM
B1: DD-PDZOpt activating peptide (peptide)
peptide: DDGQYYFV
notes: source: synthetic peptide, bought: GenScript

Kd [2]: 1.53 µM
Kd [3]: 11.9 µM
Kd [4]: 27.9 µM
B2: DD-PDZOpt activating peptide (peptide)
peptide: DDGQYYFV
notes: as for B1

B3: full-length mature human HtrA2^133–458 S306A (enzyme, UniProt O43464 133-458, looked up)
chain: AAVPSPPPASPRSQYNFIADVVEKTAPAVVYIEILDRHPFLGREVPISNGSGFVVAADGLIVTNAHVVADRRRVRVRLLSGDTYEAVVTAVDPVADIATLRIQTKEPLPTLPLGRSADVRQGEFVVAMGSPFALQNTITSGIVSSAQRPARDLGLPQTNVEYIQTDAAIDFGNAGGPLVNLDGEVIGVNTMKVTAGISFAIPSDRLREFLHRGEKKNSSSGISGSQRRYIGVMMLTLSPSILAELQLREPSFPDVQHGVLIHKVILGSPAHRAGLRPGDVILAIGEQMVQNAEDVYEAVRTQSQLAVQIRRGRETLTLYVTPEVTE
notes: HtrA2 (Omi), human, mature form, residues 133-458 of the full-length protein of 458 residues, active site serine replaced (S306A); The purchased construct is named pET21b-HtrA2, and pET21b constructs are said to be carboxy-terminally His6-tagged; The purification text also describes removal of a SUMO-His6 tag; The introduction says that the mature protein lacks the 133 amino-terminal residues, …
Kd [5]: 500 to 1000 µM

B4: full-length mature human HtrA2 without the active site serine (S306A) (enzyme, UniProt O43464 134-458, looked up)
chain: AVPSPPPASPRSQYNFIADVVEKTAPAVVYIEILDRHPFLGREVPISNGSGFVVAADGLIVTNAHVVADRRRVRVRLLSGDTYEAVVTAVDPVADIATLRIQTKEPLPTLPLGRSADVRQGEFVVAMGSPFALQNTITSGIVSSAQRPARDLGLPQTNVEYIQTDAAIDFGNAGGPLVNLDGEVIGVNTMKVTAGISFAIPSDRLREFLHRGEKKNSSSGISGSQRRYIGVMMLTLSPSILAELQLREPSFPDVQHGVLIHKVILGSPAHRAGLRPGDVILAIGEQMVQNAEDVYEAVRTQSQLAVQIRRGRETLTLYVTPEVTE
notes: human HtrA2 (Omi), mature form; the methods name the construct HtrA2^133–458; the SEC-MALS constants are of the trimer to hexamer step; also called HtrA2^S306A; MALVI^proS-HtrA2^S306A; source: E. coli BL21 (λDE3), purified (Ni-HisTrap, gel filtration)
Kd [6]: ≥ 490 µM
Kd [7]: ≥ 960 µM

B5: isolated HtrA2-PDZ domain (residues 349–458) (domain or fragment, human)
chain: NSSSGISGSQRRYIGVMMLTLSPSILAELQLREPSFPDVQHGVLIHKVILGSPAHRAGLRPGDVILAIGEQMVQNAEDVYEAVRTQSQLAVQIRRGRETLTLYVTPEVTE
notes: human HtrA2 (Omi), PDZ domain, residues 349-458; also called HtrA2^349-458; ALVIT-PDZ; source: E. coli BL21 (λDE3), purified (Ni-HisTrap, SENP1 cleavage, gel filtration); not shown: 6xHis-SUMO, N-terminal, cleaved
Kd [8]: ≥ 9200 µM
Kd [9]: ≥ 4160 µM
Kd [10]: ≥ 250 µM
Kd [11]: ≥ 3520 µM

Binder: B6
Kd [12]: 10300 ± 2500 µM
fold increase of the propensity to dimerize with Zn2+ against the non-supplemented buffer [13]: ~50 fold
Kd [14]: ≥ 13000 µM

Source: PMC11535027, “Structural basis of substrate recognition and allosteric activation of the proapoptotic mitochondrial HtrA2 protease” (Nature Communications, 2024)
